Source: US20140212431A1, “PCSK9-BINDING POLYPEPTIDES AND METHODS OF USE” (Genentech, Inc., priority 2011, published 2014)

Key:
PCSK9 binding to LDLR = target: T1, PCSK9 binding to LDLR (Homo sapiens, UniProt Q8NBP7); experiment: competition binding ELISA (biotinylated PCSK9 binding to coated rLDLR); conditions: Fc fusion protein; average ±SD of three experiments; read-out: IC50, inhibition of PCSK9 binding to LDLR
T1 construct: His8 (C); biotin (chemical, Sulfo-NHS); host or cells: PCSK9: CHO cells, transient; LDLR extracellular domain purchased
T1 sequence (Q8NBP7 153-692): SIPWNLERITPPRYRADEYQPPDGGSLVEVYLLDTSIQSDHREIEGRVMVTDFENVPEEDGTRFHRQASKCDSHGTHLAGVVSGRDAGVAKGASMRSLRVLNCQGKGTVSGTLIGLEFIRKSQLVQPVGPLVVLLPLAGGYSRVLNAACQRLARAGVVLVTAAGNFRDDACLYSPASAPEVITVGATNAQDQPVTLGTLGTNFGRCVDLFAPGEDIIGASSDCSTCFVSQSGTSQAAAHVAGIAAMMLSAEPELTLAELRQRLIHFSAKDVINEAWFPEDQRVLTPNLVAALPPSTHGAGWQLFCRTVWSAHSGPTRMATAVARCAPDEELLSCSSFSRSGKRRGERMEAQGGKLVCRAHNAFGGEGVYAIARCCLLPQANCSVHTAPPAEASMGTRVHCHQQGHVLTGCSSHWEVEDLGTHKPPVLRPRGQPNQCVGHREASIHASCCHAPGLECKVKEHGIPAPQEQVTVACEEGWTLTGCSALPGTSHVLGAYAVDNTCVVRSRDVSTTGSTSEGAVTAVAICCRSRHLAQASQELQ
T1 sequence (Q8NBP7 31-152 partner limits assumed): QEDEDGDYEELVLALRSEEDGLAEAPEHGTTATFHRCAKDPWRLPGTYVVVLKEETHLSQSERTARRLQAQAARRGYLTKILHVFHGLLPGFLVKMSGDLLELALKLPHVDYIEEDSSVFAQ
Protocol: The blocking activity of EGF peptides and EGF-Fc fusion proteins was determined by using a competition binding ELISA. Wells of 384 well MaxiSorp™ plates (Nalge Nunc International; Rochester, N.Y.) were coated overnight at 4° C. with 1 μg/mL of recombinant human LDLR extracellular domain (rLDLR) (R&D Systems; Minneapolis, Minn.) in coating buffer (50 mM sodium carbonate, pH 9.6). Then 0.5 μg/ml of biotinylated PCSK9 in assay buffer (25 mM HEPES, pH 7.2, 150 mM NaCl, 0.2 mM CaCl2, 0.1% BSA, 0.05% Tween®20) was mixed with an equal volume of serially diluted EGF peptides (0.017-6000 nM) or EGF-Fc (0.034-6000 nM) and incubated for 30 min. The solutions were added to rLDLR coated plates and incubated for 2 h. Bound biotinylated rPCSK9 was detected by sequential additions of streptavidin-horseradish peroxidase (GE Healthcare; Buckinghamshire, UK) and substrate 3, 3′, 5, 5′ tetramethyl benzidine (TMBE 1000, Moss; Pasadena, Md.). The mean absorbance values from duplicate wells were plotted as a function of antibody concentration and the data were fitted to a four parameter equation for each antibody using KaleidaGraph (Synergy Software; Reading, Pa.).

[1] = tested on: PCSK9-mediated LDLR degradation; experiment: LDLR degradation assay with HepG2 cells (FACS of cell surface LDLR); format: cell-based, human; conditions: HepG2, 15 μg/ml PCSK9, 4 h, highest concentration tested 20 μM
Protocol: Values are the average ±SD of three independent experiments.
HepG2 cells (ATCC; Manassas, Va.) were seeded into 48 well plates (Corning; Corning, N.Y.) at 1×10^5 cells per well in high glucose medium (DMEM, Gibco; Carlsbad, Calif.) containing 2 mM glutamine (Sigma), penicillin/streptomycin (Gibco) and 10% FBS (Sigma) and incubated overnight. Then the medium was changed to DMEM containing 10% lipoprotein deficient serum (LPDS, Intracel; Frederick, Md.). After 24 h, 15 μg/ml PCSK9 was mixed with serially diluted EGFwt-Fc and EGF66-Fc fusion proteins, added to the cells and incubated at 37° C. for 4 h. Cells were rinsed with PBS and detached using 2.5 mM EDTA (EMD; Gibbstown, N.J.). After centrifugation, the resuspended cells were incubated with 1:20 anti-LDLR antibody (Progen Biotechnik; Heidelberg, Germany) on ice for 15 min. The samples were then washed with PBS and incubated with 1:200 diluted goat anti mouse IgG Alexa Fluor® 488 (Invitrogen; Carlsbad, Calif.) on ice for 15 min. After two PBS washes cells were resuspended in PBS containing 10 μg/ml of propidium iodide and analyzed on a dual laser flow cytometer (FACScan, Becton Dickinson; Franklin Lakes, N.J.). Relative fluorescence units (RFUs) were used to quantify LDLR expression levels on the HepG2 cell surface. Cell surface LDLR levels were expressed as percent of LDLR levels measured in the absence of PCSK9 (=control).

liver LDLR = experiment: rescue of liver LDLR upon treatment with PCSK9 in a mouse model (immuno-blotting); format: in vivo; conditions: mice, 60 mg/kg i.v. 2 h before 30 μg PCSK9 i.v., liver after 1 h
Protocol: Mice were injected with vehicle (V), EGF-Fc (WT) or EGF66-Fc (MUT) followed by a bolus injection of recombinant human PCSK9 (30 μg/mouse). Livers were collected after 1 h and LDLR quantified by immuno-blotting. Each lane represents the pooled liver samples of three mice. The band intensities were quantified, normalized to transferring receptor contents and expressed as fraction of the untreated group (=1.0).
To determine whether increased affinity and cell efficacy could translate into improved therapeutic potential, we compared the effects of EGFwt-Fc and EGF66-Fc in rescuing liver LDLR upon treatment with PCSK9 in a mouse model. Eight weeks old male C57BL/6 mice were purchased from approved vendor and housed for 2 weeks before starting the experiment. […]
Approximately 200 mg of each liver were homogenized in Extraction Buffer 1 supplemented with Protease Inhibitor Cocktail (ProteoExtract® Native Membrane Protein Extraction Kit, Cat. No. 444810, Calbiochem) using the TissueLyser (Qiagen) according to manufacturer's instructions. […] After 30 min of gentle agitation at 4° C., the samples were centrifuged and the supernatants containing the membrane proteins were quantified using the Bradford assay. […]
Mice were first injected with vehicle, EGFwt-Fc and EGF66-Fc followed by a bolus of recombinant human PCSK9 (30 μg/mouse) and livers were collected and analyzed 1 h later. […]

PCSK9 = target: T2, PCSK9 (Homo sapiens, UniProt Q8NBP7); experiment: spot phage ELISA of EGF(A)-displaying phage clones against biotinylated PCSK9; format: binding; conditions: compared to wild type
T2 construct: His8 (C); made in house; host or cells: CHO cells, transient, pRK5 vector, purified from conditioned media
T2 sequence (Q8NBP7 153-692): as the sequence (Q8NBP7 153-692) above
Protocol: “s/n ratio” refers to signal:noise ratio, wherein “signal” is the spot phage ELISA signal detected against biotinylated PCSK9 captured by NeutrAvidin coated on the 384-well MaxiSorp™ plate; “noise” is the ELISA signal against NeutrAvidin alone.
After four rounds of binding selection, individual phage clones were picked and inoculated into 450 μl 2YT media containing 50 μg/ml carbenecillin and M13-KO7 helper phage in 96-well blocks, which were grown at 37° C. for overnight. The supernatant was analyzed with spot phage ELISA as follows: Biotinylated PCSK9 was captured to NeutrAvidin-coated 384-well MaxiSorp™ immunoplates and phage supernatant diluted (1:3) with PBT buffer was added to the wells. The plates were washed and bound phage was detected with anti-M13-HRP followed by TMB substrate. In these assays, phage binding to NeutrAvidin alone was tested in parallel to assess background binding. Clones whose binding signals for PCSK9 were more than 4 times higher than to NeutrAvidin (background) were considered positive. Positive clones were subjected to DNA sequence analysis.

With “EGF52: EGF(A) variant: Asp299 to Ser, Asn301 to Leu, Asn309 to Arg or Lys, Asp310 to Lys; phage clone and synthetic peptide” the IC50 (PCSK9 binding to LDLR) was 0.7 ± 0.3 nM.

With “EGFwt-Fc: wild type EGF(A) domain of LDLR fused via linker GGGSGAAQVTNKTHT to Fc domain of human IgG1 [reference compound]” the “LDLR surface levels, percent of control levels measured in the absence of PCSK9” value [1] was 56% and the “liver LDLR level rescued, % of control levels” value (liver LDLR) was “less than 50%”.

“EGF50: phage-displayed EGF(A) clone with single mutation at N309 to Arg” was tested, and the “binding of phage-displayed clone to PCSK9 (in words)” value (PCSK9) was “moderate increase of binding”.
